Reference: US20220143148A1, “COMPOSITIONS AND METHODS FOR MODULATING CGRP SIGNALING TO REGULATE INTESTINAL INNATE LYMPHOID CELLS” (The Broad Institute, Inc., priority 2019, published 2022)

Test system: small intestinal immune cells
Test: Droplet-based scRNA-seq of small intestinal immune cells (LP and PP), OVA vs PBS, clustering and differential expression
Assay type: in vivo, mouse
Excerpt: To comprehensively characterize small intestinal immune cells, Applicants generated scRNA-Seq profiles for 58,067 immune cells collected from lamina propria (LP) and Peyer's patch (PP) regions at steady state and after induction of a type 2 inflammatory reaction to ovalbumin (OVA) (Brandt et al., 2003) (FIGS. 1A and 8A). To ensure sufficient representation of rare cells, Applicants combined a normalization strategy—removing by flow sorting either a portion of IgD+ naïve B cells, which are the most abundant cell type in PPs, or all CD19+ and CD3+ T cells (FIG. 8B, Methods)—with profiling of a sufficiently large number of cells number (P>0.99 to recover at least 15 cells from each cluster, Methods) by massively parallel scRNA-seq (Haber et al., 2017) (Methods). Applicants obtained 36,797 and 21,270 high quality cells passing initial filtering (Methods) from PP and LP regions, respectively.
Overall, Applicants annotated 27 cell subsets across the two compartments, spanning T cells, B cells, ILCs, dendritic cells (DCs), myeloid cells and stromal cells, in frequencies ranging from 0.07% to 14%. Briefly, Applicants first partitioned the cells from the PP regions by unsupervised clustering (Methods) into 46 clusters, retained the 97% of cells that were robustly assigned cell identities in each cluster (Methods), assigned the cells from the LP regions to the 46 clusters using a classifier (Methods), and visualized the data with scvis (Ding et al., 2018), a deep generative model-based method (FIGS. 1B and 8C, Methods). Next, Applicants identified genes that were differentially expressed between the cells in each cluster and the remaining cells (Table 1, Methods), as well as between pairs of clusters (Table 2), to elucidate identities of similar cell types/states. Applicants excluded from downstream analysis clusters mostly consisting of contaminants from epithelium, likely doublets, or cells with a small number of Unique Molecular Identifiers (UMIs) (FIGS. 1C and 8D), or lacking distinct markers (Methods). Altogether, Applicants retained 27 clusters spanning 85% of the cells and each associated with distinct marker genes (FIG. 8E, Methods).
To induce allergic reaction to OVA, 6 to 7 weeks old mice were sensitized twice, two weeks apart, with 50 μg of OVA plus 1 mg of aluminum potassium sulfate adjuvant via intraperitoneal injection. Two weeks later, mice were orally administered with 50 mg of OVA on every other day for a total of five times. 1 μg of α-CGRP peptide was administered simultaneously when indicated. Mice were deprived of food for 3-4 hours in cages with wood chip bedding for limiting antigen degradation in the stomach before each intragastric challenge.
Isolation of cells from Peyer's patches (PPs). Peyer's patches (PPs) were carefully dissected from the small intestine under a stereo microscope using a fine scissor, pierced once with a fine forcep. Tissues were digested in freshly made digestion buffer (RPMI-1640 containing 100 μg/ml Liberase™ and 50 μg/ml DNase I at 37° C. on a roto-mixer. After 15 min, tissues were very gently mixed using a 1 ml pipette. The supernatant was collected and added to ice-cold MACS buffer (pH 7.4; PBS plus 2% FCS and 2 mM EDTA). Pre-warmed (37° C.) fresh digestion buffer was added to the remaining tissues. After rotation at 37° C. for 15 min, the mixture was vigorously mixed using a 1 ml pipette for 1 min. Supernatants from the two steps were combined and passed through 70 μm filters and stained for FACS (below).
Isolation of cells from the lamina propria (LP). The small intestines were opened longitudinally and washed in ice-cold PBS. For scRNA-seq, roughly 0.5 cm of fragments from each of the distal, middle and proximal regions without visible PPs were collected. Epithelial cells were dissociated by tissue rotation in pre-warmed (37° C.) PBS containing 10 mM EDTA at 37° C. for 15 min, followed by additional incubation on ice for 15 min. Tissues were then shaken vigorously. […]

B1: OVA (protein, UniProt P01012 2-386, looked up)
Ovalbumin: GSIGAASMEFCFDVFKELKVHHANENIFYCPIAIMSALAMVYLGAKDSTRTQINKVVRFDKLPGFGDSIEAQCGTSVNVHSSLRDILNQITKPNDVYSFSLASRLYAEERYPILPEYLQCVKELYRGGLEPINFQTAADQARELINSWVESQTNGIIRNVLQPSSVDSQTAMVLVNAIVFKGLWEKAFKDEDTQAMPFRVTEQESKPVQMMYQIGLFRVASMASEKMKILELPFASGTMSMLVLLPDEVSGLEQLESIINFEKLTEWTSSNVMEERKIKVYLPRMKMEEKYNLTSVLMAMGITDVFSSSANLSGISSAESLKISQAVHAAHAEINEAGREVVGSAEAGVDAASVSEEFRADHPFLFCIKHIATNAVLFFGRCVSP
B1 was tested, and the “D16Ertd472e: LN (average fold change)” value (cluster ID 4, PP, OVA vs PBS) was −0.412, the “Dnaja1: LN (average fold change)” value (cluster ID 4, PP, OVA vs PBS) was −0.300 and the “Dnajb9: LN (average fold change)” value (cluster ID 4, PP, OVA vs PBS) was −0.322. For the same molecule, the “Egln3: LN (average fold change)” value (cluster ID 4, PP, OVA vs PBS) was −0.350, the “Fam46a: LN (average fold change)” value (cluster ID 4, PP, OVA vs PBS) was −0.500 and the “Fibp: LN (average fold change)” value (cluster ID 4, PP, OVA vs PBS) was −0.268. For the same molecule, the “Furin: LN (average fold change)” value (cluster ID 4, PP, OVA vs PBS) was −0.203, the “Gatad1: LN (average fold change)” value (cluster ID 4, PP, OVA vs PBS) was −0.316 and the “Gcnt2: LN (average fold change)” value (cluster ID 4, PP, OVA vs PBS) was −0.352. For the same molecule, the “Gimap3: LN (average fold change)” value (cluster ID 4, PP, OVA vs PBS) was 0.275, the “Git2: LN (average fold change)” value (cluster ID 4, PP, OVA vs PBS) was 0.350 and the “Gnb1: LN (average fold change)” value (cluster ID 4, PP, OVA vs PBS) was −0.255. For the same molecule, the “H2-T23: LN (average fold change)” value (cluster ID 4, PP, OVA vs PBS) was −0.260, the “Herpud1: LN (average fold change)” value (cluster ID 4, PP, OVA vs PBS) was −0.214 and the “Icos: LN (average fold change)” value (cluster ID 4, PP, OVA vs PBS) was −0.291. For the same molecule, the “Il2ra: LN (average fold change)” value (cluster ID 4, PP, OVA vs PBS) was 0.378, the “Il18r1: LN (average fold change)” value (cluster ID 4, PP, OVA vs PBS) was 0.193 and the “Irf2: LN (average fold change)” value (cluster ID 4, PP, OVA vs PBS) was 0.312. For the same molecule, the “Irs2: LN (average fold change)” value (cluster ID 4, PP, OVA vs PBS) was −0.372, the “Itgav: LN (average fold change)” value (cluster ID 4, PP, OVA vs PBS) was −0.394 and the “Klf13: LN (average fold change)” value (cluster ID 4, PP, OVA vs PBS) was −0.255. For the same molecule, the “Klrk1: LN (average fold change)” value (cluster ID 4, PP, OVA vs PBS) was −0.613, the “Leng9: LN (average fold change)” value (cluster ID 4, PP, OVA vs PBS) was −0.375 and the “Map3k14: LN (average fold change)” value (cluster ID 4, PP, OVA vs PBS) was −0.515. For the same molecule, the “Mast4: LN (average fold change)” value (cluster ID 4, PP, OVA vs PBS) was −0.207, the “Mbnl2: LN (average fold change)” value (cluster ID 4, PP, OVA vs PBS) was −0.436 and the “Minos1: LN (average fold change)” value (cluster ID 4, PP, OVA vs PBS) was 0.218. The “Morf4l2: LN (average fold change)” value (cluster ID 4, PP, OVA vs PBS) was −0.252, the “Neat1: LN (average fold change)” value (cluster ID 4, PP, OVA vs PBS) was 0.447 and the “Nedd8: LN (average fold change)” value (cluster ID 4, PP, OVA vs PBS) was 0.234. The “Plekhg1: LN (average fold change)” value (cluster ID 4, PP, OVA vs PBS) was −0.229, the “Ppp1r16b: LN (average fold change)” value (cluster ID 4, PP, OVA vs PBS) was −0.157 and the “Ppp2ca: LN (average fold change)” value (cluster ID 4, PP, OVA vs PBS) was −0.432. For the same molecule, the “Ptger2: LN (average fold change)” value (cluster ID 4, PP, OVA vs PBS) was 0.347, the “Ptpn7: LN (average fold change)” value (cluster ID 4, PP, OVA vs PBS) was 0.323 and the “Raf1: LN (average fold change)” value (cluster ID 4, PP, OVA vs PBS) was 0.457. For the same molecule, the “Ramp3: LN (average fold change)” value (cluster ID 4, PP, OVA vs PBS) was −0.380, the “Rassf5: LN (average fold change)” value (cluster ID 4, PP, OVA vs PBS) was 0.506 and the “Rcn2: LN (average fold change)” value (cluster ID 4, PP, OVA vs PBS) was −0.225. For the same molecule, the “Rel: LN (average fold change)” value (cluster ID 4, PP, OVA vs PBS) was −0.354, the “Rgs1: LN (average fold change)” value (cluster ID 4, PP, OVA vs PBS) was −0.221 and the “Rgs3: LN (average fold change)” value (cluster ID 4, PP, OVA vs PBS) was 0.447. The “Rnf19b: LN (average fold change)” value (cluster ID 4, PP, OVA vs PBS) was −0.242, the “Rpa3: LN (average fold change)” value (cluster ID 4, PP, OVA vs PBS) was 0.541 and the “S100a6: LN (average fold change)” value (cluster ID 4, PP, OVA vs PBS) was 0.370. The “S100a10: LN (average fold change)” value (cluster ID 4, PP, OVA vs PBS) was 0.215, the “Saraf: LN (average fold change)” value (cluster ID 4, PP, OVA vs PBS) was −0.187 and the “Sat1: LN (average fold change)” value (cluster ID 4, PP, OVA vs PBS) was 0.222. For the same molecule, the “Scn1b: LN (average fold change)” value (cluster ID 4, PP, OVA vs PBS) was −0.273, the “Sec11a: LN (average fold change)” value (cluster ID 4, PP, OVA vs PBS) was 0.283 and the “Serpina3g: LN (average fold change)” value (cluster ID 4, PP, OVA vs PBS) was 0.347. For the same molecule, the “Serpinb6b: LN (average fold change)” value (cluster ID 4, PP, OVA vs PBS) was −0.432, the “Ssna1: LN (average fold change)” value (cluster ID 4, PP, OVA vs PBS) was 0.346 and the “Taf7: LN (average fold change)” value (cluster ID 4, PP, OVA vs PBS) was −0.409. For the same molecule, the “Taf10: LN (average fold change)” value (cluster ID 4, PP, OVA vs PBS) was −0.422, the “Tagap: LN (average fold change)” value (cluster ID 4, PP, OVA vs PBS) was 0.423 and the “Tcrg-C1: LN (average fold change)” value (cluster ID 4, PP, OVA vs PBS) was 0.484. The “Tgoln1: LN (average fold change)” value (cluster ID 4, PP, OVA vs PBS) was −0.209, the “Timm13: LN (average fold change)” value (cluster ID 4, PP, OVA vs PBS) was 0.230 and the “Tnf: LN (average fold change)” value (cluster ID 4, PP, OVA vs PBS) was 0.465. The “Trim8: LN (average fold change)” value (cluster ID 4, PP, OVA vs PBS) was 0.530, the “Trps1: LN (average fold change)” value (cluster ID 4, PP, OVA vs PBS) was −0.444 and the “Tsc22d3: LN (average fold change)” value (cluster ID 4, PP, OVA vs PBS) was 0.359. For the same molecule, the “Tspan32: LN (average fold change)” value (cluster ID 4, PP, OVA vs PBS) was 0.324, the “Ttc19: LN (average fold change)” value (cluster ID 4, PP, OVA vs PBS) was −0.499 and the “Tuba4a: LN (average fold change)” value (cluster ID 4, PP, OVA vs PBS) was −0.342. The “Tubb4b: LN (average fold change)” value (cluster ID 4, PP, OVA vs PBS) was −0.252, the “Txk: LN (average fold change)” value (cluster ID 4, PP, OVA vs PBS) was −0.188 and the “Vegfa: LN (average fold change)” value (cluster ID 4, PP, OVA vs PBS) was −0.252. For the same molecule, the “VgIl4: LN (average fold change)” value (cluster ID 4, PP, OVA vs PBS) was −0.302, the “Zc3hav1: LN (average fold change)” value (cluster ID 4, PP, OVA vs PBS) was −0.303 and the “Zfand5: LN (average fold change)” value (cluster ID 4, PP, OVA vs PBS) was −0.245. For the same molecule, the “1810037l17Rik: percentage of expressing cells in OVA-treated group” value (cluster ID 5, PP) was 0.446 and the “Bcl2: percentage of expressing cells in OVA-treated group” value (cluster ID 5, PP) was 0.863.
